In general, IC50 refers to the concentration that gives 50% inhibition.

The source of these data is patent publication US20240117005A1 (COUNCIL OF THE QUEENSLAND INSTITUTE OF MEDICAL RESEARCH, published 2024).

Assay [1] has as its target T1, importin-α1 (IMPα1) (human, UniProt P52292 2-529). The assay can be described thus: DUOLINK proximity ligation in permeabilised MDA-MB-231 cells; loss of the PDL1-Ac:IMPα1 complex, DL-2 10 to 0.00975 µM.
For assay [2], the target named is T1, importin-α1 (IMPα1). The assay can be described thus: DUOLINK proximity ligation; IC50 of DL-2-NP against IC50 of naked DL-2 for the PDL1:IMPα1 complex.
For assay [3], the target named is T1, importin-α1 (IMPα1). The experiment in a line: DUOLINK proximity ligation in permeabilised MDA-MB-231 cells; loss of the PDL1:IMPα1 complex, DL-2-NP 10 to 0.3 nM.

Starred links: 1 amine or outer side, 2 acyl side, 3 side chain; linkers in the order of their positions; H or OH if unused. Positions of bridges follow the written chain, without caps; N, C: chain ends. No end group written: not given here. *: point of attachment. TBMB = c1c(C[*:1])cc(C[*:3])cc1C[*:2]; Myristyl = CCCCCCCCCCCCCC*

B1: DL-2 bicyclic peptide (Myristyl-ACLTFIFCRLRKGRCMMDVKK on TBMB scaffold) (peptide)
peptide: Myristyl-ACLTFIFCRLRKGRCMMDVKK
modifications: linker 2-8-15 via TBMB
notes: also called DL-2-TBMB; DL-2-Batch 1
On to B1, for which it took 39 nM to reach half-maximal inhibition in the assay with importin-α1 (IMPα1) [1] (IC50).

B2: DL-2 nanoparticle (DL-2 bicyclic peptide encapsulated in a lipid nanoparticle) (peptide)
peptide: ACLTFIFCRLRKGRCMMDVKK
modifications: N-terminal myristyl; cysteines covalently bound to the TBMB scaffold (bicyclic); peptide packaged in a POPC / cholesterol / DSPE-PEG lipid nanoparticle
notes: Same peptide as DL-2, in a different formulation; also called DL-2-NP
For the molecule B2, the “fold more potent than DL-2” value with importin-α1 (IMPα1) [2] was roughly 39 fold. This molecule had an IC50 with importin-α1 (IMPα1) [3] of 1 nM.
